Data: paper PMC6456224

Columns and labels:
[1] = test system: HMG-box Pf (HMG-box domain of HMGB1) (Plasmodium falciparum); assay: MST; settings: MST: 50 nM aptamer with probeFAM (4:1), PBS, room temperature, protein 0.1 nM-2 uM, stopped-flow: SELEX buffer (100 mM NaCl, 1.5 mM KCl, 5 mM MgCl2, 6 mM …)
[2] = target: HMG-box Hs (HMG-box domain of human HMGB1) (Homo sapiens) (UniProt P09429); assay: MST; settings: MST: 50 nM aptamer with probeFAM (4:1), PBS, room temperature, protein 0.1 nM-2 uM; stopped-flow: SELEX buffer (100 mM NaCl, 1.5 mM KCl, 5 mM MgCl2, 6 mM …)
Sequence of UniProt P09429 (P09429 whole entry, the tested form may be a part): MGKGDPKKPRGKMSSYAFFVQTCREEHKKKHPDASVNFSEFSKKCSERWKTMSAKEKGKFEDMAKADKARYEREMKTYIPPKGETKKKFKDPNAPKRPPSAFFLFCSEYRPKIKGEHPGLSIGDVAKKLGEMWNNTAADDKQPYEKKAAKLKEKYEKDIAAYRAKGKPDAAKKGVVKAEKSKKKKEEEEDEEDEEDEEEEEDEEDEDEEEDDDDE

TAGGGAAGAGAAGGACATATGATAGCCGTGGATTGCAAAGGGCTGCTGTGGCTTAGTTGAATGTTGACTAGTACATGACCACTTGA [PfR5]
Kd [1]: 560 nM

TAGGGAAGAGAAGGACATATGATACCGACTACGTCAACCTGGGTCTGCTCGGGATTGCGGATGTTGACTAGTACATGACCACTTGA [PfR4]
Kd [1]: 41 nM

TAGGGAAGAGAAGGACATATGATGCCGACTACGTCAACCTGGGTCTGCTCGGGATTGCGGATGTTGACTAGTACATGACCACTTGA [PfE1]
Kd [1]: 81 nM

TAGGGAAGAGAAGGACATATGATACCGACTACGTCAACTTGGGTCTGCTCGGGATTGCGGATGTTGACTAGTACATGACCACTTGA [PfE2]
Kd [1]: 55 nM

TAGGGAAGAGAAGGACATATGATCGCGTGGGTTTGGCTCCGGGCCTGGCGGATGCACGTATAGTTGACTAGTACATGACCACTTGA [PfR6 (PfR6FAM)]
Kd [1]: 65 nM
Kd ([1]; separate S4 experiment): 64 nM

TAGGGAAGAGAAGGACATATGATAGATGCAAAGGACTGCTCAGGCTTGCGATGGCAGCTTCATTTGACTAGTACATGACCACTTGA [PfR2]
Kd [1]: 778 nM

TAGGGAAGAGAAGGACATATGATCACTAGGTCTGCTTAGGATTGCGTAAGTGAAAGTCATTTATTGACTAGTACATGACCACTTGA [PfR3]
Kd [1]: 1930 nM

TAGGGAAGAGAAGGACATATGATAGTTTACACCAAGGACTGCTTAGGATTGCGTTAGGGTATTTTGACTAGTACATGACCACTTGA [PfE3]
fold lower affinity than HMG-box Pf (fold lower affinity than HMG-box Pf) [2]: 10
Kd [1]: 815 nM
Kd ([1]; separate S4 experiment): 740 nM

TAGGGAAGAGAAGGACATATGATGAGAAGGACTGCTTAGGCTTGCGATGTGAAATCTGTAATCTTGACTAGTACATGACCACTTGA [PfR1]
Kd [1]: 175 nM
